Molecular target: SP1 (endogenous, PIG1 nuclear extract) (UniProt P08047)
Assay: EMSA, supershift
Settings: 10 ug PIG1 nuclear extract, 300 fmol biotin probe, 1.5 ug poly(dI-dC), kit binding buffer (LightShift; composition, salt and pH not given), 15 ul, 20 min room …

SP1 (endogenous, PIG1 nuclear extract), sequence (P08047 whole entry): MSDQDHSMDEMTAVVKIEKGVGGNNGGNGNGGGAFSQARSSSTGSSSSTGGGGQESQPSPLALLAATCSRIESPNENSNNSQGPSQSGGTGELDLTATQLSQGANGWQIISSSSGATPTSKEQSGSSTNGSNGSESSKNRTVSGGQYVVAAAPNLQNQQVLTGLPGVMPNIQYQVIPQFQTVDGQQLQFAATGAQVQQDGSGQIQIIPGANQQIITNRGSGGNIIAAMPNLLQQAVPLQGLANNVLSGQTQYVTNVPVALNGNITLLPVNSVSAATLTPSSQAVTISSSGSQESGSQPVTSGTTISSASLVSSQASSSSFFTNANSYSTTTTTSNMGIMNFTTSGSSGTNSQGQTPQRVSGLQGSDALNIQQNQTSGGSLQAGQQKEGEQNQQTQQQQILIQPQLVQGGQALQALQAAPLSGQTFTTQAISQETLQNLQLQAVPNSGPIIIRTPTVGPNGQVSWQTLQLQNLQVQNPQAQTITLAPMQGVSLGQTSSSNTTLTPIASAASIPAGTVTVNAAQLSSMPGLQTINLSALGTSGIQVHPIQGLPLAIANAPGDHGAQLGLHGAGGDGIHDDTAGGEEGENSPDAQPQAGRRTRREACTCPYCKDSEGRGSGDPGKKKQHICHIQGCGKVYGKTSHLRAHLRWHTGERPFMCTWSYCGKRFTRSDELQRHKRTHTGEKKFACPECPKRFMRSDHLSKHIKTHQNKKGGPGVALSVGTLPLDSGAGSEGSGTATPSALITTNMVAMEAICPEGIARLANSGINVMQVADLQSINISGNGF

Sequence	binding signal (% of -129C band)
AAGACGGAATGGAATCCAGATGGGCGGGGG (double strand) [AHR promoter -129C probe]	100
AAGATGGAATGGAATCCAGATGGGCGGGGG (double strand) [AHR promoter -129T probe]	> 100

Source: publication PMC4570213
